According to IntAct's records for PubMed 15078334:

B1: Guanine nucleotide-binding protein alpha-1 subunit (Oryza sativa subsp. japonica (Rice)), Q0DJ33 (parent)
chain: MGSSCSRSHSLSEAETTKNAKSADIDRRILQETKAEQHIHKLLLLGAGESGKSTIFKQIKLLFQTGFDEAELRSYTSVIHANVYQTIKILYEGAKELSQVESDSSKYVISPDNQEIGEKLSDIDGRLDYPLLNKELVLDVKRLWQDPAIQETYLRGSILQLPDCAQYFMENLDRLAEAGYVPTKEDVLYARVRTNGVVQIQFSPVGENKRGGEVYRLYDVGGQRNERRKWIHLFEGVNAVIFCAAISEYDQMLFEDETKNRMMETKELFDWVLKQRCFEKTSFILFLNKFDIFEKKIQKVPLSVCEWFKDYQPIAPGKQEVEHAYEFVKKKFEELYFQSSKPDRVDRVFKIYRTTALDQKLVKKTFKLIDESMRRSREGT
partner: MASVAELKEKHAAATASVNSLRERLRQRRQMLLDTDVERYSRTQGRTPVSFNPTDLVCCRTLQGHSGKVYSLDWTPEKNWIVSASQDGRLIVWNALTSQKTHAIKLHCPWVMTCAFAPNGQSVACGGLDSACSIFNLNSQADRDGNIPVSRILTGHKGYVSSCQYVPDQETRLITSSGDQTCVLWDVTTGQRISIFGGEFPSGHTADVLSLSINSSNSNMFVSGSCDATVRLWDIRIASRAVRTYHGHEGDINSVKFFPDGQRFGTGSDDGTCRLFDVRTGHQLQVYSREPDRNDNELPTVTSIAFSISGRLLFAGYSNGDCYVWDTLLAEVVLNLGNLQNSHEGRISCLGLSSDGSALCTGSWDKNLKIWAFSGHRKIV

Variants of: B1
Conditions: with gbb_orysj RGB1, Q40687

Row | effect of a mutation on the interaction | Variant
1 | disrupting interaction | MGSSCSRSHSLSEAETTKNAKSADIDRRILQETKAEQHIHKLLLLGAGESGKSTIFKQIKLLFQTGFDEAELRSYTSVIHANVYQTIKILYEGAKELSQVESDSSKYVISPDNQEIGEKLSDIDGRLDYPLLNKELVLDVKRLWQDPAIQETYLRGSILQLPDCAQYFMENLDRLAEAGYVPTKEDVLYARVRTNGVVQIQFSPVGENKRGGEVYRLYDVGGLRNERRKWIHLFEGVNAVIFCAAISEYDQMLFEDETKNRMMETKELFDWVLKQRCFEKTSFILFLNKFDIFEKKIQKVPLSVCEWFKDYQPIAPGKQEVEHAYEFVKKKFEELYFQSSKPDRVDRVFKIYRTTALDQKLVKKTFKLIDESMRRSREGT [Q223L]
